Assay results from paper PMC6155126 (Nature Communications, 2018).

Molecular target: FLAG-Pol λ-WT (human, UniProt Q9UGP5 1-575)
Assay: cell-based or functional assay

B1: FLAG-XRCC4 (natural protein, human, UniProt Q13426 1-336, looked up)
chain: MERKISRIHLVSEPSITHFLQVSWEKTLESGFVITLTDGHSAWTGTVSESEISQEADDMAMEKGKYVGELRKALLSGAGPADVYTFNFSKESCYFFFEKNLKDVSFRLGSFNLEKVENPAEVIRELICYCLDTIAENQAKNEHLQKENERLLRDWNDVQGRFEKCVSAKEALETDLYKRFILVLNEKKTKIRSLHNKLLNAAQEREKDIKQEGETAICSEMTADRDPVYDESTDEESENQTDLSGLASAAVSKDDSIISSLDVTDIAPSRKRRQRMQRNLGTEPKMAPQENQLQEKENSRPDSSLPETSKKEHISAENMSLETLRNSSPEDLFDEI
- Pol λ-dependent gap filling synthesis on a 5nt-gapped dsDNA (33-mer), stimulation by added protein over a concentration series: ≤ 10 fold
